Data from US20210388087A1 (Chugai, published 2021).

Target: T1, Human CD137 ECD (human)
T1 construct: entry includes C-terminal His-tag and biotin acceptor peptide; also called human CD137 extracellular domain; 4-1BB
Test: Biacore SPR, vs parent H183/L072

T1 sequence (chain, as listed by the source limits assumed): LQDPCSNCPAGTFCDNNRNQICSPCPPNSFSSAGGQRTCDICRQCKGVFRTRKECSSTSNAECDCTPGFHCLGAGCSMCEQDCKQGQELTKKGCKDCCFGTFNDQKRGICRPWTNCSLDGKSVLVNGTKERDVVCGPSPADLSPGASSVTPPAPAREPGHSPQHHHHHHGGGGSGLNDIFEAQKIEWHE

| Binder | fold change of affinity [fold] |
| --- | --- |
| H183/L072 VL S52E (antibody, name in Kabat numbering, V domains shown, Dual-Ig) VH: QVQLVESGGGLVQPGRSLRLSCAASGFTFSNAWMHWVRQAPGKGLEWVAQIKDKGNAYAAYYAPSVKGRFTISRDDSKNSIYLQMNSLKTEDTAVYYCHYVHYASASTVLPAFGVDAWGQGTTVTVSS VL: DIVMTQSPLSLPVTPGEPASISCQASQELVHMNRNTYLHWYQQKPGQAPRLLIYKVENRFPGVPDRFSGSGSGTDFTLKISRVEAEDVGVYYCAQGTSVPFTFGQGTKLEIK | 1 |
| H183/L072 VL S93G (antibody, name in Kabat numbering, V domains shown, Dual-Ig) VH: QVQLVESGGGLVQPGRSLRLSCAASGFTFSNAWMHWVRQAPGKGLEWVAQIKDKGNAYAAYYAPSVKGRFTISRDDSKNSIYLQMNSLKTEDTAVYYCHYVHYASASTVLPAFGVDAWGQGTTVTVSS VL: DIVMTQSPLSLPVTPGEPASISCQASQELVHMNRNTYLHWYQQKPGQAPRLLIYKVSNRFPGVPDRFSGSGSGTDFTLKISRVEAEDVGVYYCAQGTGVPFTFGQGTKLEIK | 0.4 |
| H183/L072 VL S52R (antibody, name in Kabat numbering, V domains shown, Dual-Ig) VH: QVQLVESGGGLVQPGRSLRLSCAASGFTFSNAWMHWVRQAPGKGLEWVAQIKDKGNAYAAYYAPSVKGRFTISRDDSKNSIYLQMNSLKTEDTAVYYCHYVHYASASTVLPAFGVDAWGQGTTVTVSS VL: DIVMTQSPLSLPVTPGEPASISCQASQELVHMNRNTYLHWYQQKPGQAPRLLIYKVRNRFPGVPDRFSGSGSGTDFTLKISRVEAEDVGVYYCAQGTSVPFTFGQGTKLEIK | 1 |
| H183/L072 VL S93D (antibody, name in Kabat numbering, V domains shown, Dual-Ig) VH: QVQLVESGGGLVQPGRSLRLSCAASGFTFSNAWMHWVRQAPGKGLEWVAQIKDKGNAYAAYYAPSVKGRFTISRDDSKNSIYLQMNSLKTEDTAVYYCHYVHYASASTVLPAFGVDAWGQGTTVTVSS VL: DIVMTQSPLSLPVTPGEPASISCQASQELVHMNRNTYLHWYQQKPGQAPRLLIYKVSNRFPGVPDRFSGSGSGTDFTLKISRVEAEDVGVYYCAQGTDVPFTFGQGTKLEIK | 0.7 |
| H183/L072 VL S52W (antibody, name in Kabat numbering, V domains shown, Dual-Ig) VH: QVQLVESGGGLVQPGRSLRLSCAASGFTFSNAWMHWVRQAPGKGLEWVAQIKDKGNAYAAYYAPSVKGRFTISRDDSKNSIYLQMNSLKTEDTAVYYCHYVHYASASTVLPAFGVDAWGQGTTVTVSS VL: DIVMTQSPLSLPVTPGEPASISCQASQELVHMNRNTYLHWYQQKPGQAPRLLIYKVWNRFPGVPDRFSGSGSGTDFTLKISRVEAEDVGVYYCAQGTSVPFTFGQGTKLEIK | 1 |
| H183/L072 VL S52P (antibody, name in Kabat numbering, V domains shown, Dual-Ig) VH: QVQLVESGGGLVQPGRSLRLSCAASGFTFSNAWMHWVRQAPGKGLEWVAQIKDKGNAYAAYYAPSVKGRFTISRDDSKNSIYLQMNSLKTEDTAVYYCHYVHYASASTVLPAFGVDAWGQGTTVTVSS VL: DIVMTQSPLSLPVTPGEPASISCQASQELVHMNRNTYLHWYQQKPGQAPRLLIYKVPNRFPGVPDRFSGSGSGTDFTLKISRVEAEDVGVYYCAQGTSVPFTFGQGTKLEIK | 0.3 |
| H183/L072 VL S52M (antibody, name in Kabat numbering, V domains shown, Dual-Ig) VH: QVQLVESGGGLVQPGRSLRLSCAASGFTFSNAWMHWVRQAPGKGLEWVAQIKDKGNAYAAYYAPSVKGRFTISRDDSKNSIYLQMNSLKTEDTAVYYCHYVHYASASTVLPAFGVDAWGQGTTVTVSS VL: DIVMTQSPLSLPVTPGEPASISCQASQELVHMNRNTYLHWYQQKPGQAPRLLIYKVMNRFPGVPDRFSGSGSGTDFTLKISRVEAEDVGVYYCAQGTSVPFTFGQGTKLEIK | 1.1 |
| H183/L072 VL S52H (antibody, name in Kabat numbering, V domains shown, Dual-Ig) VH: QVQLVESGGGLVQPGRSLRLSCAASGFTFSNAWMHWVRQAPGKGLEWVAQIKDKGNAYAAYYAPSVKGRFTISRDDSKNSIYLQMNSLKTEDTAVYYCHYVHYASASTVLPAFGVDAWGQGTTVTVSS VL: DIVMTQSPLSLPVTPGEPASISCQASQELVHMNRNTYLHWYQQKPGQAPRLLIYKVHNRFPGVPDRFSGSGSGTDFTLKISRVEAEDVGVYYCAQGTSVPFTFGQGTKLEIK | 1.2 |
| H183/L072 VL S52V (antibody, name in Kabat numbering, V domains shown, Dual-Ig) VH: QVQLVESGGGLVQPGRSLRLSCAASGFTFSNAWMHWVRQAPGKGLEWVAQIKDKGNAYAAYYAPSVKGRFTISRDDSKNSIYLQMNSLKTEDTAVYYCHYVHYASASTVLPAFGVDAWGQGTTVTVSS VL: DIVMTQSPLSLPVTPGEPASISCQASQELVHMNRNTYLHWYQQKPGQAPRLLIYKVVNRFPGVPDRFSGSGSGTDFTLKISRVEAEDVGVYYCAQGTSVPFTFGQGTKLEIK | 1.3 |
| H183/L072 VL S52K (antibody, name in Kabat numbering, V domains shown, Dual-Ig) VH: QVQLVESGGGLVQPGRSLRLSCAASGFTFSNAWMHWVRQAPGKGLEWVAQIKDKGNAYAAYYAPSVKGRFTISRDDSKNSIYLQMNSLKTEDTAVYYCHYVHYASASTVLPAFGVDAWGQGTTVTVSS VL: DIVMTQSPLSLPVTPGEPASISCQASQELVHMNRNTYLHWYQQKPGQAPRLLIYKVKNRFPGVPDRFSGSGSGTDFTLKISRVEAEDVGVYYCAQGTSVPFTFGQGTKLEIK | 1.2 |
| H183/L072 VL S93F (antibody, name in Kabat numbering, V domains shown, Dual-Ig) VH: QVQLVESGGGLVQPGRSLRLSCAASGFTFSNAWMHWVRQAPGKGLEWVAQIKDKGNAYAAYYAPSVKGRFTISRDDSKNSIYLQMNSLKTEDTAVYYCHYVHYASASTVLPAFGVDAWGQGTTVTVSS VL: DIVMTQSPLSLPVTPGEPASISCQASQELVHMNRNTYLHWYQQKPGQAPRLLIYKVSNRFPGVPDRFSGSGSGTDFTLKISRVEAEDVGVYYCAQGTFVPFTFGQGTKLEIK | 1 |
| H183/L072 VL S93A (antibody, name in Kabat numbering, V domains shown, Dual-Ig) VH: QVQLVESGGGLVQPGRSLRLSCAASGFTFSNAWMHWVRQAPGKGLEWVAQIKDKGNAYAAYYAPSVKGRFTISRDDSKNSIYLQMNSLKTEDTAVYYCHYVHYASASTVLPAFGVDAWGQGTTVTVSS VL: DIVMTQSPLSLPVTPGEPASISCQASQELVHMNRNTYLHWYQQKPGQAPRLLIYKVSNRFPGVPDRFSGSGSGTDFTLKISRVEAEDVGVYYCAQGTAVPFTFGQGTKLEIK | 0.9 |
| H183/L072 VL S52F (antibody, name in Kabat numbering, V domains shown, Dual-Ig) VH: QVQLVESGGGLVQPGRSLRLSCAASGFTFSNAWMHWVRQAPGKGLEWVAQIKDKGNAYAAYYAPSVKGRFTISRDDSKNSIYLQMNSLKTEDTAVYYCHYVHYASASTVLPAFGVDAWGQGTTVTVSS VL: DIVMTQSPLSLPVTPGEPASISCQASQELVHMNRNTYLHWYQQKPGQAPRLLIYKVFNRFPGVPDRFSGSGSGTDFTLKISRVEAEDVGVYYCAQGTSVPFTFGQGTKLEIK | 1.2 |
| H183/L072 VL S93H (antibody, name in Kabat numbering, V domains shown, Dual-Ig) VH: QVQLVESGGGLVQPGRSLRLSCAASGFTFSNAWMHWVRQAPGKGLEWVAQIKDKGNAYAAYYAPSVKGRFTISRDDSKNSIYLQMNSLKTEDTAVYYCHYVHYASASTVLPAFGVDAWGQGTTVTVSS VL: DIVMTQSPLSLPVTPGEPASISCQASQELVHMNRNTYLHWYQQKPGQAPRLLIYKVSNRFPGVPDRFSGSGSGTDFTLKISRVEAEDVGVYYCAQGTHVPFTFGQGTKLEIK | 1.3 |
| H183/L072 VL S93E (antibody, name in Kabat numbering, V domains shown, Dual-Ig) VH: QVQLVESGGGLVQPGRSLRLSCAASGFTFSNAWMHWVRQAPGKGLEWVAQIKDKGNAYAAYYAPSVKGRFTISRDDSKNSIYLQMNSLKTEDTAVYYCHYVHYASASTVLPAFGVDAWGQGTTVTVSS VL: DIVMTQSPLSLPVTPGEPASISCQASQELVHMNRNTYLHWYQQKPGQAPRLLIYKVSNRFPGVPDRFSGSGSGTDFTLKISRVEAEDVGVYYCAQGTEVPFTFGQGTKLEIK | 1 |
| H183/L072 VL S52N (antibody, name in Kabat numbering, V domains shown, Dual-Ig) VH: QVQLVESGGGLVQPGRSLRLSCAASGFTFSNAWMHWVRQAPGKGLEWVAQIKDKGNAYAAYYAPSVKGRFTISRDDSKNSIYLQMNSLKTEDTAVYYCHYVHYASASTVLPAFGVDAWGQGTTVTVSS VL: DIVMTQSPLSLPVTPGEPASISCQASQELVHMNRNTYLHWYQQKPGQAPRLLIYKVNNRFPGVPDRFSGSGSGTDFTLKISRVEAEDVGVYYCAQGTSVPFTFGQGTKLEIK | 1 |
| H183/L072 VL S52T (antibody, name in Kabat numbering, V domains shown, Dual-Ig) VH: QVQLVESGGGLVQPGRSLRLSCAASGFTFSNAWMHWVRQAPGKGLEWVAQIKDKGNAYAAYYAPSVKGRFTISRDDSKNSIYLQMNSLKTEDTAVYYCHYVHYASASTVLPAFGVDAWGQGTTVTVSS VL: DIVMTQSPLSLPVTPGEPASISCQASQELVHMNRNTYLHWYQQKPGQAPRLLIYKVTNRFPGVPDRFSGSGSGTDFTLKISRVEAEDVGVYYCAQGTSVPFTFGQGTKLEIK | 1 |
| H183/L072 VL S52I (antibody, name in Kabat numbering, V domains shown, Dual-Ig) VH: QVQLVESGGGLVQPGRSLRLSCAASGFTFSNAWMHWVRQAPGKGLEWVAQIKDKGNAYAAYYAPSVKGRFTISRDDSKNSIYLQMNSLKTEDTAVYYCHYVHYASASTVLPAFGVDAWGQGTTVTVSS VL: DIVMTQSPLSLPVTPGEPASISCQASQELVHMNRNTYLHWYQQKPGQAPRLLIYKVINRFPGVPDRFSGSGSGTDFTLKISRVEAEDVGVYYCAQGTSVPFTFGQGTKLEIK | 1.4 |
| H183/L072 VL S52Q (antibody, name in Kabat numbering, V domains shown, Dual-Ig) VH: QVQLVESGGGLVQPGRSLRLSCAASGFTFSNAWMHWVRQAPGKGLEWVAQIKDKGNAYAAYYAPSVKGRFTISRDDSKNSIYLQMNSLKTEDTAVYYCHYVHYASASTVLPAFGVDAWGQGTTVTVSS VL: DIVMTQSPLSLPVTPGEPASISCQASQELVHMNRNTYLHWYQQKPGQAPRLLIYKVQNRFPGVPDRFSGSGSGTDFTLKISRVEAEDVGVYYCAQGTSVPFTFGQGTKLEIK | 1 |
| H183/L072 VL S52L (antibody, name in Kabat numbering, V domains shown, Dual-Ig) VH: QVQLVESGGGLVQPGRSLRLSCAASGFTFSNAWMHWVRQAPGKGLEWVAQIKDKGNAYAAYYAPSVKGRFTISRDDSKNSIYLQMNSLKTEDTAVYYCHYVHYASASTVLPAFGVDAWGQGTTVTVSS VL: DIVMTQSPLSLPVTPGEPASISCQASQELVHMNRNTYLHWYQQKPGQAPRLLIYKVLNRFPGVPDRFSGSGSGTDFTLKISRVEAEDVGVYYCAQGTSVPFTFGQGTKLEIK | 1.2 |
| H183/L072 VL S52G (antibody, name in Kabat numbering, V domains shown, Dual-Ig) VH: QVQLVESGGGLVQPGRSLRLSCAASGFTFSNAWMHWVRQAPGKGLEWVAQIKDKGNAYAAYYAPSVKGRFTISRDDSKNSIYLQMNSLKTEDTAVYYCHYVHYASASTVLPAFGVDAWGQGTTVTVSS VL: DIVMTQSPLSLPVTPGEPASISCQASQELVHMNRNTYLHWYQQKPGQAPRLLIYKVGNRFPGVPDRFSGSGSGTDFTLKISRVEAEDVGVYYCAQGTSVPFTFGQGTKLEIK | 0.8 |
